The Human Domainome abundance scans (Beltran et al. 2025)

B1: PDZ and LIM domain protein 2, residues 284 to 339; numbered along this chain, Q96JY6 (parent)
chain: HTCEKCSTSIANQAVRIQEGRYRHPGCYTCADCGLNLKMRGHFWVGDELYCEKHAR
B2: V(D)J recombination-activating protein 2, residues 415 to 491; numbered along this chain, P55895 (parent)
chain: YWITCCPTCDVDINTWVPFYSTELNKPAMIYCSHGDGHWVHAQCMDLAERTLIHLSAGSNKYYCNEHVEIARALHTP

Variants of: B1
Assay: abundance fitness (aPCA) (normalised: wild type 0, dead -1); higher = more abundant; growth selection in yeast, the domain comes from the species named
Conditions: Homo sapiens

Abundance fitness of substitutions, site by site:
Y50: E -0.673 | V 0.072 | L -0.039 | A -0.188 | F -0.001 | W -0.161 | K 0.04 | T -0.289 | I -0.194 | M 0.077 | G -0.501 | Q -0.256 | H -0.083 | D -0.079 | N -0.239 | R -0.008
L49: Y -0.269 | A -0.159 | E -0.377 | N -0.942 | Q -0.174 | C -0.108 | K -0.733 | W -0.39 | S -0.341 | G -0.286 | M -0.205 | V -0.075 | P -0.154 | T -0.207 | I 0.117 | H -0.343 | R -0.885 | F -0.343
H54: Y -0.284 | Q -0.759 | S -0.522 | G -0.317 | I -0.755 | A -0.865 | M -0.901 | C 0.135 | L -0.653 | V -0.612 | K -0.7 | T -0.7 | N -0.465 | R -0.655 | P -0.771 | W -0.856 | D 0.128
C51: E -0.219 | I -0.523 | V -1.17 | Q -0.696 | W -1.05 | H -0.827 | K -0.839 | Y -0.94 | P -0.614 | R -0.969 | A -0.669 | D -0.593 | T -1.16 | S -0.609
W44: A 0.163 | I 0.352 | P 0.205 | H 0.15 | N -0.24 | S 0.027 | K -0.208 | C 0.005 | L 0.096 | V 0.044 | T -0.232 | Y 0.128 | R -0.045 | M -0.034 | F 0.025 | Q 0.096 | E 0.139
E52: M -0.152 | K -0.226 | L -0.156 | R -0.256 | F -0.075 | A -0.183 | P 0.183 | Q -0.102 | C -0.246 | D 0.029 | W -0.108 | S -0.352 | V -0.605 | I -0.468 | N 0.18
G41: V -0.434 | W -0.797 | R -0.216 | Q -0.076 | T -0.083 | S -0.436 | Y -0.395
E48: V -0.011 | H -0.084 | C -0.289 | R -0.079 | I -0.174 | S -0.074 | A -0.091 | K -0.034 | N 0.203 | Y -0.235 | P -0.788 | G 0.079 | Q -0.292 | D -0.065 | T -0.286 | L -0.082 | M -0.18
G46: E 0.047 | F -0.624 | L -0.134 | T -0.202 | K 0.019 | M -0.276 | P -0.324 | A -0.206 | R -0.031 | I -0.223 | C -0.202 | H -0.238 | N 0.112 | W -0.429 | S -0.066 | Y 0.044 | Q -0.206 | V -0.226
A55: Y 0.081 | V -0.172 | C -0.108 | Q 0.041 | D -0.097 | E -0.309 | I -0.203 | P -0.414 | F 0.12 | M -0.066 | G -0.079 | S 0.148 | R 0.005 | T -0.013 | W 0.063
R56: W -0.344 | G 0.068 | V 0.049 | L 0.797 | C 0.093 | E 0.263
K53: T 0.037 | S 0.184 | Q 0.028 | R -0.124 | V 0.007 | D 0.078 | L -0.135 | W 0.164 | F -0.089 | G -0.158 | C -0.377 | I -0.275 | Y 0.252 | N -0.056 | E 0.235 | H 0.377 | A -0.198
H42: R -0.19 | E 0.16 | V -0.064 | K -0.113 | D 0.078 | Y -0.393 | S 0.022 | T 0.008 | Q -0.032 | P -0.053 | I -0.282 | M -0.162 | A -0.147 | G -0.301 | W -0.233 | L 0.178 | C -0.005
D47: G -0.11 | N -0.11 | K 0.052 | R 0.008 | W -0.1 | V -0.229 | C -0.002 | H -0.136 | I -0.135 | T -0.047 | L -0.026 | Y -0.224 | E -0.12 | S 0.004 | F -0.339 | M -0.086
F43: V -0.423 | Y -0.145 | C 0.101 | E -0.057 | T -0.04 | S -0.056 | P -0.058 | A -0.189 | M -0.208 | R -0.138 | K -0.381 | I -0.084 | D 0.087 | Q -0.26 | W 0.099 | L -0.048 | N 0.071 | G -0.048
V45: C -0.242 | R 0.108 | L -0.063 | Y 0.066 | P -0.361 | S -0.11 | W -0.116 | K 0.313 | N -0.155 | H 0.221 | D -0.434 | Q -0.092 | G 0.107 | T -0.585 | E 0.041 | M -0.057 | I 0.29 | A 0.022

Variants of: B2
Assay: as above
Conditions: Homo sapiens

Abundance fitness of substitutions, site by site:
P7: S 0.075 | W -0.242 | L -0.065 | V -0.006 | K 0.084 | E 0.09 | D 0.002 | R -0.635
T8: D -0.279 | E 0.058 | G -0.277 | A -0.437 | K -0.123
T4: Q -0.185 | R -0.013 | C -0.119 | E -0.057 | P -0.234 | S -0.037 | F -0.101 | W -0.297 | I -0.016 | K -0.048 | V -0.128 | Y -0.141 | M -0.176 | A -0.122 | D -0.022 | L -0.049 | N 0.012
I3: G -0.021 | S -0.118 | P -0.623 | E -0.082 | K -0.018 | A -0.057 | T -0.102 | Y -0.202 | W -0.159 | F 0.044 | N -0.053 | H -0.265 | Q -0.186 | V -0.053 | D 0.004 | C -0.117 | M -0.041 | L -0.112
Y1: T -0.098 | K -0.365 | D -0.108 | R -0.469 | F -0.07 | Q -0.283 | W -0.19 | N -0.252 | V -0.008 | S -0.084 | A -0.188 | E -0.063 | M -0.041 | G -0.102 | L -0.098 | H -0.399
C5: G -0.392 | A -0.616
W2: I -0.333 | Y 0.055 | E -0.231 | G -0.342 | N 0.12 | L -0.467 | R -0.378 | Q -0.382 | V -0.853 | A -0.39 | K -0.162 | H -0.11 | M -0.226 | P -0.299
C6: V -0.096 | S 0.209 | L -0.284 | R -0.432 | M -0.393 | K -0.28 | G -0.024 | F -0.304
